Measurements taken from patent publication US20100322920 (published 2010).
Where “and” joins values, the source holds several entries; their conditions need not be identical. Equal values may be shown once.

Biological target: T1, human CD30 (TNFRSF8), recombinant (human, UniProt P28908)
T1 chain: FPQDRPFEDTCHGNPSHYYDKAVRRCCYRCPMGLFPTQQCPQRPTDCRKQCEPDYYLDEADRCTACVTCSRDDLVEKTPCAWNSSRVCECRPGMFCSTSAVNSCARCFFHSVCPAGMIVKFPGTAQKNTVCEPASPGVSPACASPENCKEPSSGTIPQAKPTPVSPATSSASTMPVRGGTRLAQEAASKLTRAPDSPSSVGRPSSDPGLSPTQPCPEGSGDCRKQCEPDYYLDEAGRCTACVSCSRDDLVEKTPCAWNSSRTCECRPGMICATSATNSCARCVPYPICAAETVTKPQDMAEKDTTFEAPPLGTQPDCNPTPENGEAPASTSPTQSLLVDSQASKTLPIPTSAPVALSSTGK
Test: SPR

Kd: 1.12 nM and 1.14 nM and 1.23 nM and 1.36 nM
B1: HuMab 5F11 (antibody, V domains shown)
VH: QVQLQQWGAGLLKPSETLSLTCAVYGGSFSAYYWSWIRQPPGKGLEWIGDINHGGGTNYNPSLKSRVTISVDTSKNQFSLKLNSVTAADTAVYYCASLTAYWGQGSLVTVSS
VL: DIQMTQSPTSLSASVGDRVTITCRASQGISSWLTWYQQKPEKAPKSLIYAASSLQSGVPSRFSGSGSGTDFTLTISSLQPEDFATYYCQQYDSYPITFGQGTRLEIK
